Measured values from patent publication US20050037963.

Experiments:
[1] = tested on: HA-tagged full-length FIP200 (pKH3-FIP200, residues 1-1591)
[2] = tested on: GST fusion protein containing CT-FIP (pGEX-CT-FIP)
[3] = tested on: GST alone [GST: P08515]

Sequence of FAK immunoprecipitated from Chinese hamster ovary cells overexpressing FAK (Q05397 2-1052): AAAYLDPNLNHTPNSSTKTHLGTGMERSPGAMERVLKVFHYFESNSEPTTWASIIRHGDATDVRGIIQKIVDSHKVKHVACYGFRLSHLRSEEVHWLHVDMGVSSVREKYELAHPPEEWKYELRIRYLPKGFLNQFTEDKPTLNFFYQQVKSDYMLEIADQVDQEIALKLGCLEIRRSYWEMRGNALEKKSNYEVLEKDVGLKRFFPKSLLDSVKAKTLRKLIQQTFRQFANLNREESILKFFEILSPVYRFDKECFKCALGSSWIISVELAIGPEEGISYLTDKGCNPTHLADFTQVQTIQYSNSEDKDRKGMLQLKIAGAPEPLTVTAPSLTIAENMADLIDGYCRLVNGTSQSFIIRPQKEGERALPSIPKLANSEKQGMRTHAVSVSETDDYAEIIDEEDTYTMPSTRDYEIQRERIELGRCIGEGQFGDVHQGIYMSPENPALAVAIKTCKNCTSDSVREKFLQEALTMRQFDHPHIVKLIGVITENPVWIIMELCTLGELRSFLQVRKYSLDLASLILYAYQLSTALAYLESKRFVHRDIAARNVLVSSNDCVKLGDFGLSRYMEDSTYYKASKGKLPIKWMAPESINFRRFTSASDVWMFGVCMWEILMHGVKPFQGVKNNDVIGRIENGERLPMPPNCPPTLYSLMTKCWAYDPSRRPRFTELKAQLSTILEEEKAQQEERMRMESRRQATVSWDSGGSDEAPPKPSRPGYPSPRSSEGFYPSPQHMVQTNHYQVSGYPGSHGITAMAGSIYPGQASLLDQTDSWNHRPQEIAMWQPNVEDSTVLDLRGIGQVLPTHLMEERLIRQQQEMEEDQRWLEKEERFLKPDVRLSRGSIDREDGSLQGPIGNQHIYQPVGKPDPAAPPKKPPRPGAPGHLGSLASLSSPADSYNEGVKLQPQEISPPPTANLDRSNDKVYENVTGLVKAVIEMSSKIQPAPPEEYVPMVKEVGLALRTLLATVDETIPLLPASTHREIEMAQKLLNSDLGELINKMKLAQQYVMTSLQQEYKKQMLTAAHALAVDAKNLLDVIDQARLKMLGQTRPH
Sequence of FAK expressed from an expression vector encoding FAK (tag not stated) (Q05397 2-1052): as above

| Substance | rescue of BrdU incorporation (NIH3T3) [1] | FAK kinase activity (in vitro kinase assay, E4Y1 as exogenous substrate) [2] | FAK kinase activity (in vitro kinase assay, E4Y1 as exogenous substrate) [3] |
| --- | --- | --- | --- |
| FAK expressed from an expression vector encoding FAK (tag not stated) | it rescued the inhibition of BrdU incorporation by FIP200 to the control levels | – | – |
| FAK immunoprecipitated from Chinese hamster ovary cells overexpressing FAK | – | at lower concentrations (e.g., <5 pmol/reaction), GST fusion proteins containing NT-FIP or MD-FIP reduced FAK kinase activity, whereas CT-FIP did not | GST alone did not have any effect |
